Here are results for 2 molecules from publication PMC3120129 (Biochemistry, 2011).

Data set [1] has as its target E2 domain of amyloid precursor protein (APP), construct APP_(346–548), native (human) (UniProt P05067). Put plainly: AUC.
The data set “crystal structure” concerns the molecule itself. Kind of data set: crystal structure.

Regarding “E2 domain of amyloid precursor protein (APP), construct APP_(346–548), native (from UniProt P05067-8 346-548) (domain or fragment)”, in data set [1], the Kd stood at 9.2 µM and the stoichiometry N – broadly, the number of molecules, sites or subunits per partner or assembly – is 2.

B1: E2 domain of APLP1, construct APLP1_(285–499) (crystallised) (domain or fragment, human, UniProt P51693 285-499, looked up)
chain: TPTPRPTDGVDIYFGMPGEISEHEGFLRAKMDLEERRMRQINEVMREWAMADNQSKNLPKADRQALNEHFQSILQTLEEQVSGERQRLVETHATRVIALINDQRRAALEGFLAALQADPPQAERVLLALRRYLRAEQKEQRHTLRHYQHVAAVDPEKAQQMRFQVHTHLQVIEERVNQSLGLLDQNPHLAQELRPQIQELLHSEHLGPSELEAPA
For the molecule B1, in the data set “crystal structure”, the binding result is “binds”.
